Results published in patent US8889130B2, “Treatment of osteoarthritis and pain” (Abbvie Inc., priority 2011, dated 2014).

Biological target: hIL-1β (Homo sapiens, UniProt P01584)
Test: Surface plasmon resonance (Biacore) binding kinetics and affinity to hIL-1β
Details: antigen hIL-1β
Experimental: The kinetics of DVD-Ig molecules binding to rhIL1-α and rhIL1-β was determined by surface plasmon resonance-based measurements with a Biacore 3000 instrument (Biacore AB, Uppsala, Sweden) using HBS-EP (10 mM HEPES, pH 7.4, 150 mM NaCl, 3 mM EDTA, and 0.005% surfactant P20) at 25° C. All chemicals were obtained from Biacore AB (Uppsala, Sweden) or otherwise from a different source as described herein. Approximately, 5000 RU of goat anti-human IgG Fcγ fragment specific polyclonal antibody (Pierce Biotechnology Inc, Rockford, Ill.) diluted in 10 mM sodium acetate (pH 4.5) was directly immobilized across a CM5 research grade biosensor chip using a standard amine coupling kit according to manufacturer's instructions and procedures at […]. Unreacted moieties on the biosensor surface were blocked with ethanolamine. Modified carboxymethyl dextran surface in flowcell 2 and 4 was used as a reaction surface. Unmodified carboxymethyl dextran without goat anti-human IgG in flow cell 1 and 3 was used as the reference surface. For kinetic analysis, rate equations derived from the 1:1 Langmuir binding model were fitted simultaneously to association and dissociation phases of all ten injections (using global fit analysis) using the Bioevaluation 4.0.1 software. Purified DVD-Ig samples were diluted in HEPES-buffered saline for capture across goat anti-human IgG Fc specific reaction surfaces and injected over reaction matrices at a flow rate of […]. The association and dissociation rate constants, kon (M-1s-1) and koff (s-1) were determined under a continuous flow rate of […]. Rate constants were derived by making kinetic binding measurements at ten different antigen concentrations ranging from 1.25 to 1000 nM. The equilibrium dissociation constant (M) of the reaction between DVD-Ig molecule and rhIL1α/β was then calculated from the kinetic rate constants by the following formula: KD=koff/kon. Aliquots of rhIL1α/β samples were also simultaneously injected over a blank reference and reaction CM surface to record and subtract any nonspecific binding background to eliminate the majority of the refractive index change and injection noise. Surfaces were regenerated with two subsequent […] injections of 10 mM Glycine (pH 1.5) at a flow rate of […]. The anti-Fc antibody immobilized surfaces were completely regenerated and retained their full capture capacity over twelve cycles. The apparent stoichiometry of the captured DVD-Ig-rhIL1α/β complex was calculated under saturating binding conditions (steady-state equilibrium) using the following formula: […]

Sequence of hIL-1β (P01584 117-269): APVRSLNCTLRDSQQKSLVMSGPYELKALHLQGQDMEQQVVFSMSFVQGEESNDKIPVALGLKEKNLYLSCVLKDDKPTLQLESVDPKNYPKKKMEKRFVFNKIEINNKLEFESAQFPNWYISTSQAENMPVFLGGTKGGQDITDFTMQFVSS

koff: 0.000621 s⁻¹
kon: 2.13e+06 M⁻¹ s⁻¹
B1: 13F5.G5: murine monoclonal antibody to human IL-1β; VH SEQ ID NO: 95, VL SEQ ID NO: 96 (antibody, listed as Mus musculus, V domains shown)
VH: QVQLQQSGAELVRPGSSVKISCKASGYAFSSYWMNWVKQRPGQGLEWIGQIYPGDGDTNYNGKFKGKATLTADKSSSTSYMQLSGLTSEDSAMYFCVRFPTGNDYYAMDYWGQGTSVTVSS
VL: NIVLTQSPASLAVSLGQRATISCRASESVDSYGNSYMHWYQQKPGQPPKLLIYLASNLESGVPARFSGSGSRTDFTLTIDPVEADDAATYYCQQNNEDPFTFGSGTKLEIKR
